Laboratory results from article PMC12051055, “Spectroscopy and crystallography define carotenoid oxygenases as a new subclass of mononuclear non-heme Fe^II enzymes” (The Journal of Biological Chemistry, 2025).

What was measured:
[1] = test system: Oc1cc(O)cc(/C=C/c2ccc(O)c(O)c2)c1; test: X-ray crystal structure of complex, MCD; the value is the apparent Km from steady-state kinetics; format: biochemical, Neurospora crassa; details: Fe(II) active site
CC=Cc1ccc(O)c(OC)c1 = test: steady-state kinetics of cleavage to vanillin by purified enzyme (apparent Km); format: biochemical, Neurospora crassa; details: Fe(II)
[2] = ~[…]° rotation of the β-ring toward the vacancy left from the absent Thr side chain
[3] = β-ring rotated ~[…]° away from the Val151 side chain

Substance	Km ([1]; rotation of the β-ring toward the vacancy left from the absent Thr side chain) [µM]	kcat [1, 2] [s⁻¹]	kcat/Km [1, 2] [M⁻¹ s⁻¹]	Km ([1]; β-ring rotated away from the Val151 side chain) [µM]	kcat [1, 3] [s⁻¹]	kcat/Km [1, 3] [M⁻¹ s⁻¹]	Km (CC=Cc1ccc(O)c(OC)c1) [µM]
CAO1 (Neurospora crassa carotenoid oxygenase 1) (Neurospora crassa OR74A; T151G)	0.110 ± 0.013	0.089 ± 0.003	810000 ± 100000	–	–	–	–
CAO1 (Neurospora crassa carotenoid oxygenase 1) (Neurospora crassa OR74A; T151V)	–	–	–	0.027 ± 0.003	1.04 ± 0.024	3.87e+07 ± 4.42e+06	93.92 ± 12.27
